{
  "source": "patent US8703708",
  "assay_in_all_cases": "cell-based or functional assay",
  "key": {"[1]": {"biological_target": "Lrp5 + Fzd4 co-expressed on STF (superTOPFLASH) reporter cells (UniProt Q91VN0)", "sequence (Q91VN0 31-1614 limits assumed, chain 1 of 2)": "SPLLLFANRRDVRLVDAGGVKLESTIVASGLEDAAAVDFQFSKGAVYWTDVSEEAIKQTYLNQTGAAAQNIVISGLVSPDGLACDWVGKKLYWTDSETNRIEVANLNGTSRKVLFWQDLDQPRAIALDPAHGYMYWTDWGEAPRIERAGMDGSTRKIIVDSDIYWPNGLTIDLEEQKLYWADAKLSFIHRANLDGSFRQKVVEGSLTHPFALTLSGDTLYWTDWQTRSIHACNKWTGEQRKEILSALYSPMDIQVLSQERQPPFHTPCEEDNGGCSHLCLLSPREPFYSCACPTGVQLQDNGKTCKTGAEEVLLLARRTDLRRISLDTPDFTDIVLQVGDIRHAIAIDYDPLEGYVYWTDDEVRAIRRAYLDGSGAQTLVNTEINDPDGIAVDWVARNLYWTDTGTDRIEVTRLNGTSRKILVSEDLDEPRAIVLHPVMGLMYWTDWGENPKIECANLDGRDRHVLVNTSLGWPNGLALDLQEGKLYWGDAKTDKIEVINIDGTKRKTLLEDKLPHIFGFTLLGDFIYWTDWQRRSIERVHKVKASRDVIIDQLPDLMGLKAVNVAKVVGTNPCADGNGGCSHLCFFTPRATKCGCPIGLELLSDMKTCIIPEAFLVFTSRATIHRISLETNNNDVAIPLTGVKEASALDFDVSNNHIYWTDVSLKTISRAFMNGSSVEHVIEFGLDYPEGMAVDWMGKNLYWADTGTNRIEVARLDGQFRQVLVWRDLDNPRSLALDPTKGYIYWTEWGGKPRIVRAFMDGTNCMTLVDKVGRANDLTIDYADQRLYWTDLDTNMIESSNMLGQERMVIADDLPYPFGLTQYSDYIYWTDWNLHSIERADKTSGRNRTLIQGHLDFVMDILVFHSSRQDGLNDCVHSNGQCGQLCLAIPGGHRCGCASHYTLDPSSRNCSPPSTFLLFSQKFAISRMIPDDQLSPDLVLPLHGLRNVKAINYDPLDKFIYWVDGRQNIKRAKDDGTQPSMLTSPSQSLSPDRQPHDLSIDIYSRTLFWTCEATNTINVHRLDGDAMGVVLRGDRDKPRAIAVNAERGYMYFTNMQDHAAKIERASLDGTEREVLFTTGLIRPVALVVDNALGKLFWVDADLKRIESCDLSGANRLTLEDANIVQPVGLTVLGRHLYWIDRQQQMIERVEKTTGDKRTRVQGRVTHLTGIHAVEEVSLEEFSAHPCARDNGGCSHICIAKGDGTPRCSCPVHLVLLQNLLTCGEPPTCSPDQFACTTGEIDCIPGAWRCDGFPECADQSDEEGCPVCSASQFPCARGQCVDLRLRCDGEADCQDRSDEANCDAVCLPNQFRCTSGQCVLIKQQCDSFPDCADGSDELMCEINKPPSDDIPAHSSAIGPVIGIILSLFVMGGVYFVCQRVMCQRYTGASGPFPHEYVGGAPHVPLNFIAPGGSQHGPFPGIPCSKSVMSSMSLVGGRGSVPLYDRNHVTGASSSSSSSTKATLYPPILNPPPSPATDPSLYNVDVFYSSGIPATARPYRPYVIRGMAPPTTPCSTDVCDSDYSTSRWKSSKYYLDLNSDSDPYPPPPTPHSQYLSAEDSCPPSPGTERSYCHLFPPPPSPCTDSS", "sequence (Q61088 37-537 limits assumed, chain 2 of 2, further chain)": "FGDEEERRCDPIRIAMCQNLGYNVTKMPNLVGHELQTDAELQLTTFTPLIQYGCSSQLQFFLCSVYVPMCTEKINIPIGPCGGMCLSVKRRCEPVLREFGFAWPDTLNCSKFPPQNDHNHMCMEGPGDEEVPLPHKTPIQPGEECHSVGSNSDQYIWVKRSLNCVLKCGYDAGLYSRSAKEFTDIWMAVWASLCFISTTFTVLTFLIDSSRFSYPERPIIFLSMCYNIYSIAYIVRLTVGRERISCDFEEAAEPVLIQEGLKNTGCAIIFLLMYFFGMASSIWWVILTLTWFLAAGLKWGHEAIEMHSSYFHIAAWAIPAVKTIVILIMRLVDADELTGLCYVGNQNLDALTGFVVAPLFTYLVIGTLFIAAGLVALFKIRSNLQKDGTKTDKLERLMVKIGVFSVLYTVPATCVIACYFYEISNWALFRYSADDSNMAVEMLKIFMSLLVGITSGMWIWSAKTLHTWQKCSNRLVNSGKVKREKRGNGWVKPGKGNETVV"}, "[2]": {"biological_target": "Lrp5 + Fzd7 co-expressed on STF (superTOPFLASH) reporter cells (UniProt Q91VN0)", "sequence (Q91VN0 31-1614 limits assumed, chain 1 of 2, other chains not shown)": "as the sequence (Q91VN0 31-1614 limits assumed, chain 1 of 2) above"}, "[3]": {"biological_target": "Lrp6 + Fzd4 co-expressed on STF (superTOPFLASH) reporter cells (UniProt O88572)", "sequence (O88572 20-1613 limits assumed, chain 1 of 2)": "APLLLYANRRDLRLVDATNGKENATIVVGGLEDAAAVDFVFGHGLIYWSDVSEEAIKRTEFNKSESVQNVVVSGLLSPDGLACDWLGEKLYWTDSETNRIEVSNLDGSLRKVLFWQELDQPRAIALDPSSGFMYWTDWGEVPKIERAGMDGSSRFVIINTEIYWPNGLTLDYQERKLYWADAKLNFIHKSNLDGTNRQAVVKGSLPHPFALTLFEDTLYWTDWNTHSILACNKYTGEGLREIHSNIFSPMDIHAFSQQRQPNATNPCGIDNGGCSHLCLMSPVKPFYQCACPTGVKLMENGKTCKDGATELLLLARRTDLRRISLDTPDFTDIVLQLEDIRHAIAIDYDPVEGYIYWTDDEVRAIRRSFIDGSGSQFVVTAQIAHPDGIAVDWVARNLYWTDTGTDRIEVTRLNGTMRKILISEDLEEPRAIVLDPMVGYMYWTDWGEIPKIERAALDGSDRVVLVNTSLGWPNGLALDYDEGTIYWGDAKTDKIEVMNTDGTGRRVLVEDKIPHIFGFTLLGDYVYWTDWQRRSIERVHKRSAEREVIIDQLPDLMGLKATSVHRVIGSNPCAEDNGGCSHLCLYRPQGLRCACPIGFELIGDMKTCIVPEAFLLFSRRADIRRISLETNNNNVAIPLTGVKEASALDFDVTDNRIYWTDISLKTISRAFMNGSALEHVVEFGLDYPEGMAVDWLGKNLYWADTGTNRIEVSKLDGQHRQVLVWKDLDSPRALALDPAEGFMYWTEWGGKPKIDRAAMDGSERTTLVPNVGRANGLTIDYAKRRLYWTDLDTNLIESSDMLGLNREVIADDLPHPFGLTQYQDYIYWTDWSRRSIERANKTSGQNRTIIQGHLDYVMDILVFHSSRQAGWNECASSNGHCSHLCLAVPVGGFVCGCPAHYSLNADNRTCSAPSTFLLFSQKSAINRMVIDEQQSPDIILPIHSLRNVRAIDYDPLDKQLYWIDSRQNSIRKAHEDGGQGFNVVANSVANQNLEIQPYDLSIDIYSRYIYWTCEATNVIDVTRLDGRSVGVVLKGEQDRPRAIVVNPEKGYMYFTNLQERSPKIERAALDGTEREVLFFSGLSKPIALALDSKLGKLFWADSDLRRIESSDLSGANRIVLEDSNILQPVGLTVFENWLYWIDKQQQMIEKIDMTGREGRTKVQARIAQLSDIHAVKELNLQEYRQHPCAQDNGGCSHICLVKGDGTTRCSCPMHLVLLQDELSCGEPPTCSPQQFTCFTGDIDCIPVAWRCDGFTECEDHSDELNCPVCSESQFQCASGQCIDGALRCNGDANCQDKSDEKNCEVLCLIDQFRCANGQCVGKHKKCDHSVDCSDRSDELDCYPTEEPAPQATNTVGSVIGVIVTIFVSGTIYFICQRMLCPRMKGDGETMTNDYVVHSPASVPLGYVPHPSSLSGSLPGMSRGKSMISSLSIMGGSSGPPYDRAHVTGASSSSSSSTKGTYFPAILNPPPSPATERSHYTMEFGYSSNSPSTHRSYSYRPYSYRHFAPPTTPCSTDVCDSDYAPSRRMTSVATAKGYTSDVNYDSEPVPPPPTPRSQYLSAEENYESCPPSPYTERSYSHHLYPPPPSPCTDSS", "sequence (Q61088 37-537 limits assumed, chain 2 of 2, further chain)": "as the sequence (Q61088 37-537 limits assumed, chain 2 of 2, further chain) above"}, "[4]": {"biological_target": "Lrp6 + Fzd7 co-expressed on STF (superTOPFLASH) reporter cells (UniProt O88572)", "sequence (O88572 20-1613 limits assumed, chain 1 of 2, other chains not shown)": "as the sequence (O88572 20-1613 limits assumed, chain 1 of 2) above"}},
  "data": [
    {"substance": "Wnt7b (ORF cloned from C57BL6 kidney cDNA, expressed by 293 cells or bone marrow macrophages) (from UniProt P28047 25-349) (ligand)", "values": [
      {"measurement": "Firefly Luciferase, absolute light units, STF reporter cells co-cultured with 293-Wnt7b (293-control: 6430) (absolute light units)", "setting": "[1]", "value": 26900},
      {"measurement": "Firefly Luciferase, absolute light units, STF reporter cells co-cultured with 293-Wnt7b (293-control: 16172) (absolute light units)", "setting": "[2]", "value": 51600},
      {"measurement": "Firefly Luciferase, absolute light units, STF reporter cells co-cultured with 293-Wnt7b (293-control: 573) (absolute light units)", "setting": "[3]", "value": 10100},
      {"measurement": "Firefly Luciferase, absolute light units, STF reporter cells co-cultured with 293-Wnt7b (293-control: 464) (absolute light units)", "setting": "[4]", "value": 11500}
    ]}
  ]
}
